Substitutions are numbered along the chain they refer to. Names and notes keep the numbering of the source.
B1: H2aM8832N (antibody, V domains shown)
VH: QVQLVESGGGVVQPGRSLRLSCAASGFTFSRYGMHWVRQAPGKGLEWVAVIWYDGTNKYYEDSLKGRFTISRDNSKNTLYLQMNSLRAEDSAVYYCARDQGKYIDYWGQGTLVTVSS
VL: AIQMTQSPSSLSASVGDRVTITCRTSQDIRNDLGWYQQKPGKVPNLLIYAASTLQSGVPSRFSGSGSGTDFTLTISSLQPEDFATYYCLQDYNYPFTFGPGTKVDIK
notes: mouse IgG2 Fc (H2aM prefix)
B2: H2aM8098N (antibody, V domains shown)
VH: QLQLQESGPGLVKPSETLSLTCTVSGGSISSSNYYWDWIRQTPEKGLEWIGSIHYSGTSYYNPSLKSRVTISVDTSKNQFSLKLRSVTAADAAVYYCARQTSVYWYFDIWGHGTLVTVST
VL: EIVLTQSPGTLSLSPGEGATLSCRASQSVRNNYLAWYQQKPGQAPRLLIYGASSRAIGIPDRFSGSGSGTDFTLTISRLEPKDFVVYYCQQYGGSLFTFGPGTKVDIK
notes: mouse IgG2 Fc (H2aM prefix)
B3: H2aM8092N (antibody, V domains shown)
VH: QVQLQESGPGLVKPSETLSLTCTVSGGSISSYYWSWIRQPPGKGLDWIGHIYYSGTTYYNPSLKSRVSISLDTSKNQFSLKLSSVTAADTAVYYCARHLRGYSSGREFDYWGQGTLVTVSS
VL: DIQMTQSPSSLSASVGGRVSLTCRASQSIFSYLNWYQQKPGKAPKLLIYAASNLQSGVPSRFSGSGSGTDFTLTISSLQPEDFATYSCQQSYNIPYTFGQGTKLEIK
notes: mouse IgG2 Fc (H2aM prefix); also called H2M8092N
B4: H1H8900P (antibody, V domains shown)
VH: QVQLVESGGGVVQPGRSLRLSCVASGFTFSSYGMHWVRQAPGKGLEWVAVISFDGSNKYYADSVKGRFTISRDNSKNTLYLQMNSLRPADTAVYYCAKDRSNYYYFGMDVWGQGTTVTVSS
VL: DIVMTQTPLSLPVTPGEPASISCRSSQSLLDSDDGNTYLDWYLQKPGQSPQLLIYTLSYRASGVPDRFSGSGSGTDFTLKISRVEAEDVGVYYCMQRIEFPLTFGGGTKVEIK
notes: H1H Fc prefix (human Fc)
B5: H2aM8091N (antibody, V domains shown)
VH: QVQLVQSGADMKKPGASVKVSCKASGYTFTTYGINWVRQAPGQGLEWMGWISAYSGITNYAQSFQGRVTMTTDTSTSTAYMELRSLRSDDTAVYYCARGGYNWATGDYFDYWGQGTLVTVSS
VL: DIQMTQSPSTLSASIGDRVTITCRASQSISSWLAWYQQKPGKAPKFLIYKASSLASGVPSRFSGSGSGTEFTLTISSLQPDDFATYYCQQYDSYSPYTFGQGTKVEIK
notes: mouse IgG2 Fc (H2aM prefix); also called H2M8091N
B6: H1H8899P (antibody, V domains shown)
VH: EVQLVESGGGLVQPGGSLRLSCAASGFTFSSHWMSWVRQAPGKGLEWVANIKQDGSEKYYVDSVKGRFTISRDNAKNSLYLQISSLRAEDTAVYYCASNWNFLFDFWGQGTLVTVSS
VL: not shown
B7: H4H8859P (antibody, V domains shown)
VH: EVQLVESGGSVVRPGGSLRLSCAASGFTFDVYGMSWVRQAPGKGLEWVSGINWIGGSTGYADSVKGRFTISRDNAKNSLYLQMNSLRAEDTALYYCTREEDYWGQGTLVTVSS
VL: DVVMTQSPLSLAVTLGQPASISCRSSQSLVYSDGNTYLNWFQQRPGQSPRRLFYKVSNRDSGVPDRFSGSGSGTDFTLKISRVEAEDVGIYYCMQGIKWPLTFGGGTKVEIK
notes: human IgG4 Fc (H4H prefix)
B8: H4H8870P (antibody, V domains shown)
VH: B7 VH with S10G, T28K, A40L, N52S, I54T, T58S, A75G, N77K
VL: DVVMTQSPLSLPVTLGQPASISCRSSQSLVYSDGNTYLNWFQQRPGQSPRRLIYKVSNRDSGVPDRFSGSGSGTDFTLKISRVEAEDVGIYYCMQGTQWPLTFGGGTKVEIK
notes: human IgG4 Fc (H4H prefix)

These binders were tested against T1, human KLB and human FGFR1c co-expressed on HEK293/hKLB/hFGFR1c/SRE-luc cells (human, UniProt Q86Z14 1-1044; P11362 22-822) (assay: cell-based or functional assay).

| Binder | EC50, SRE-luc activation without ligand [nM] | Maximum Activation (%) without ligand [%] |
| --- | --- | --- |
| B1 | 0.75 | 4 |
| B2 | 23 | 1 |
| B3 | 0.2 | 1 |
| B4 | 17 | 2 |
| B5 | 3.6 | 1 |

Target: T1, human KLB and human FGFR1c co-expressed …
Experiment: cell-based or functional assay
Remark: another data set of the same source

| Binder | IC50, inhibition of 1 nM hFGF21 [nM] | Maximum Inhibition (%) of 1 nM hFGF21 [%] |
| --- | --- | --- |
| B2 | 15 | 62 |
| B3 | 0.12 | 50 |
| B4 | 4.5 | 41 |
| B5 | 1.5 | 106 |
| B6 | 0.04 | 20 |

What follows are binders tested against T2, extracellular domain of human KLB expressed with C-terminal HA and hexahistidine tags (human, UniProt Q86Z14 1-996) (assay: SPR, mAb captured, 37 C).
T2 construct: also called hKLB-HA-6His; hKLB-HA-6his
T2 sequence: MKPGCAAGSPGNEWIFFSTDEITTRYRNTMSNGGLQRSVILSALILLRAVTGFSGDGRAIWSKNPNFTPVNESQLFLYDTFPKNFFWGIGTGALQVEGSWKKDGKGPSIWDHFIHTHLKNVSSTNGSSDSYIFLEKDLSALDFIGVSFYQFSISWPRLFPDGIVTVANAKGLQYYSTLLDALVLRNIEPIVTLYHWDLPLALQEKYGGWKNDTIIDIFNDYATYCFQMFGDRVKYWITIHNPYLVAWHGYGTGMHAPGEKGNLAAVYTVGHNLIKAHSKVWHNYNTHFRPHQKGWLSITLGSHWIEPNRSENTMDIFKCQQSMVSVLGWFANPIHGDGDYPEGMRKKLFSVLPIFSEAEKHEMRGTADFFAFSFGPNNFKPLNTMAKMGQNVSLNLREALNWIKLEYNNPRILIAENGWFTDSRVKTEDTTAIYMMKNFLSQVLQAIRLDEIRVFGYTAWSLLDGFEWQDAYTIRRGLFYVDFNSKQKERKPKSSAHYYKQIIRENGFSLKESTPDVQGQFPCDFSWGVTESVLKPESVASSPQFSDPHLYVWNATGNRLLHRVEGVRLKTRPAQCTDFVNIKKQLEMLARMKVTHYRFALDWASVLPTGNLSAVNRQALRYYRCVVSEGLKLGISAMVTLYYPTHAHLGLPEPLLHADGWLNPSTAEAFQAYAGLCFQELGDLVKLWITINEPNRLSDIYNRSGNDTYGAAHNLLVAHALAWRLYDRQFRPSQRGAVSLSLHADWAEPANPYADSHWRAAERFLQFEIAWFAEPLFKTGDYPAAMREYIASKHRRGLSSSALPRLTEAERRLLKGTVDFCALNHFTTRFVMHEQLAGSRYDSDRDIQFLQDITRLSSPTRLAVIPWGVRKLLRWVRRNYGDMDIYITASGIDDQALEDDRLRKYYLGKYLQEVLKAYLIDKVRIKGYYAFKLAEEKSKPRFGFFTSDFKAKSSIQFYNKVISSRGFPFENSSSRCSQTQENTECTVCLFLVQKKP
Protocol: (§1) Equilibrium dissociation constants (KD values) for human KLB or human FGFR1c binding to purified anti-KLB/FGFR1c monoclonal antibodies were determined using a real-time surface plasmon resonance biosensor using a Biacore T-200 or 4000 instrument. The Biacore sensor surface was derivatized by amine coupling with either a polyclonal rabbit anti-mouse antibody (GE, # BR-1008-38) or with a monoclonal mouse anti-human Fc antibody (GE, # BR-1008-39) to capture anti-KLB/FGFR1c monoclonal antibodies expressed with either a mouse Fc or a human Fc, respectively. All Biacore binding studies were performed in a buffer composed of 0.01M HEPES pH 7.4, 0.15M NaCl, 3mM EDTA, 0.05% v/v Surfactant P20 (HBST running buffer). […] Association of hKLB-HA-6His or hFGFR1c-V5-6His to the captured monoclonal antibody was monitored for 3.5 to 4 minutes and the dissociation of hKLB-HA-6His or hFGFR1c-V5-6His in HBST running buffer was monitored for 8-12 minutes. All the binding kinetics experiments were performed at 25° C. or 37° C. Kinetic association (kₐ) and dissociation (kd) rate constants were determined by fitting the real-time sensorgrams to a 1:1 binding model using Scrubber 2.0c curve fitting software. Binding dissociation equilibrium constants (KD) and dissociative half-lives (t½) were calculated from the kinetic rate constants as: […]

| Binder | 20 nM hKLB-HA-6His Bind (RU) | Kd [nM] | koff [s⁻¹] | kon [M⁻¹ s⁻¹] | t1/2 [h] |
| --- | --- | --- | --- | --- | --- |
| B1 | -0.7 |  |  |  |  |
| B2 | 3.9 |  |  |  |  |
| B3 | 93.6 | 0.412 | 8e-05 | 194000 | 2.41 |
| B4 | 2.6 |  |  |  |  |
| B5 | -2.3 |  |  |  |  |
| B7 | 0.8 |  |  |  |  |
| B8 | -0.8 |  |  |  |  |
| B6 | -0.1 |  |  |  |  |

These binders were tested against T3, extracellular domain of human FGFR1c expressed with C-terminal V5 and hexahistidine tags (human, UniProt P11362 22-376) (assay: SPR, mAb captured, 37 C).
T3 construct: also called hFGFR1c-V5-6His
T3 sequence: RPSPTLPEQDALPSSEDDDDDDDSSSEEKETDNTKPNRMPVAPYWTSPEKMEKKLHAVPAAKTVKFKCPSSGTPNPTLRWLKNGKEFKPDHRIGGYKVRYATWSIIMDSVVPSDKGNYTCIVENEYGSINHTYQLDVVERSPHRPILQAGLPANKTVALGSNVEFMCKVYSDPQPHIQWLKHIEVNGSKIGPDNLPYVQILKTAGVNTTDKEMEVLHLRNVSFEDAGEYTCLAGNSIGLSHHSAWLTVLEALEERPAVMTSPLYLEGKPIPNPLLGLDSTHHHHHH
Protocol: as §1

| Binder | 180 nM hFGFR1c-V5-6His Bind (RU) | Kd [nM] | koff [s⁻¹] | kon [M⁻¹ s⁻¹] | t1/2 [s] |
| --- | --- | --- | --- | --- | --- |
| B1 | 2.3 |  |  |  |  |
| B2 | -1.4 |  |  |  |  |
| B3 | 0.5 |  |  |  |  |
| B4 | 1.6 |  |  |  |  |
| B5 | -1.3 |  |  |  |  |
| B7 | 6.8 | 497 | 0.0382 | 76800 | 18 |
| B8 | 10.6 | 301 | 0.0795 | 264000 | 6 |
| B6 | 2.8 |  |  |  |  |

Each binder was assayed against M. fascicularis KLB and human FGFR1c co-expressed on HEK293/MfKLB/hFGFR1c/SRE-Luc cells (M. fascicularis; human, UniProt A0A2K5WB58 1-1044) (assay: cell-based or functional assay).
M. fascicularis KLB and human FGFR1c co-expressed on HEK293/MfKLB/hFGFR1c/SRE-Luc cells, sequence (chain, as listed by the source, chain 1 of 2): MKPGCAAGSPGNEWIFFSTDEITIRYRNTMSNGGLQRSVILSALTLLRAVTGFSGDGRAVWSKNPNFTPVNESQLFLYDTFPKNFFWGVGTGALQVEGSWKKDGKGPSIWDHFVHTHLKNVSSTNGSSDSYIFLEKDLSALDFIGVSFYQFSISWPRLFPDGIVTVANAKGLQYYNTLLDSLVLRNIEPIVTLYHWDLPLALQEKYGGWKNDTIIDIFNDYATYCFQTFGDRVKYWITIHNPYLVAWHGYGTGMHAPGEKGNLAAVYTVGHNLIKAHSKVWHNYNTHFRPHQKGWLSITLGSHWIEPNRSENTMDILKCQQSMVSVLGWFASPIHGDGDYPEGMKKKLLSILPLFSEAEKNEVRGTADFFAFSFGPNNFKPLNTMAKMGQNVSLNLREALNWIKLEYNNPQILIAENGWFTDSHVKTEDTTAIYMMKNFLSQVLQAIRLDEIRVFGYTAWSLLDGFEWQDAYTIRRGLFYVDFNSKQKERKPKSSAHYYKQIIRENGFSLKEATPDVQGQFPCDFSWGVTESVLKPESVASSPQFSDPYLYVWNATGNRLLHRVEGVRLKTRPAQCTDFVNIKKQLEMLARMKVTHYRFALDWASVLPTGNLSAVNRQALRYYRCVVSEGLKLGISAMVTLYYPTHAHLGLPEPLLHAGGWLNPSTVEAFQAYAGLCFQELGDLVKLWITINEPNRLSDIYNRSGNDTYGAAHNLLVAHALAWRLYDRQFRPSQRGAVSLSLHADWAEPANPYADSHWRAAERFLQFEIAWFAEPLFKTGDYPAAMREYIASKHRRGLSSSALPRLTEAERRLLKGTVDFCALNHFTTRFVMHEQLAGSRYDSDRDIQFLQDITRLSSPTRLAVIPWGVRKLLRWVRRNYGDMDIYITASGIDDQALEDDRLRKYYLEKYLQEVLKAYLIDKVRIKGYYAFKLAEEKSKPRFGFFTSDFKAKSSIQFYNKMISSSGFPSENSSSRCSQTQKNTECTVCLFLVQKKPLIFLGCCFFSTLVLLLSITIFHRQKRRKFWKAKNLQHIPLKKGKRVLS
M. fascicularis KLB and human FGFR1c co-expressed on HEK293/MfKLB/hFGFR1c/SRE-Luc cells, sequence (chain, as listed by the source, chain 2 of 2): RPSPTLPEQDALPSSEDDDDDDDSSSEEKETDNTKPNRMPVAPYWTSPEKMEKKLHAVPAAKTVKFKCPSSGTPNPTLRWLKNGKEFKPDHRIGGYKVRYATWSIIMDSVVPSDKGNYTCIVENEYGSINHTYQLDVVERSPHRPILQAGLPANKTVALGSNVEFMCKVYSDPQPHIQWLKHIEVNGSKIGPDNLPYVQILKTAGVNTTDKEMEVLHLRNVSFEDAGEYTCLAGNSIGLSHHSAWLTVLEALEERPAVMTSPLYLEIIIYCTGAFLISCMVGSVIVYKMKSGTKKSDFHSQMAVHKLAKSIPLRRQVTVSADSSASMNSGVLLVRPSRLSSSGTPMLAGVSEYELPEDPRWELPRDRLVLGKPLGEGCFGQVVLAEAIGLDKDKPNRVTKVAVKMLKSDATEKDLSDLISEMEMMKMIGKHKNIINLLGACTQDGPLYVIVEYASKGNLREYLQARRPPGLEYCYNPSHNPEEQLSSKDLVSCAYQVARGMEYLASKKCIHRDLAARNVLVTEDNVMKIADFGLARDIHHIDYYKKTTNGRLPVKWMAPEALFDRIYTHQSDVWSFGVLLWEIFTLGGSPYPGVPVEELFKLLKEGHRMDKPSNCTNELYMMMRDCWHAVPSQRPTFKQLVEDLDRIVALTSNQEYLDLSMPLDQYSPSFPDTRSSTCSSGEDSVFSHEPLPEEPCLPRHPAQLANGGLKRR

| Binder | IC50, inhibition of 10 nM mfFGF21 [nM] | Maximum Inhibition (%) of 10 nM mfFGF21 [%] |
| --- | --- | --- |
| B1 | 0.11 | 15 |
| B3 | 0.22 | 18 |
| B5 | 2.3 | 104 |

These binders were tested against T2, extracellular domain of human KLB … (assay: SPR, mAb captured, 25 C).
Protocol: as §1

| Binder | 20 nM hKLB-HA-6His Bind (RU) | Kd [nM] | koff [s⁻¹] | kon [M⁻¹ s⁻¹] | t1/2 [h] | binding result |
| --- | --- | --- | --- | --- | --- | --- |
| B1 | -0.2 |  |  |  |  |  |
| B2 | 2.7 |  |  |  |  |  |
| B3 | 64.1 | 0.383 | 5.56e-05 | 145000 | 3.46 |  |
| B4 | 0.3 |  |  |  |  | no binding (tested: 60 nM) |
| B5 | -2 |  |  |  |  |  |
| B7 | -0.8 |  |  |  |  |  |
| B8 | -0.6 |  |  |  |  |  |
| B6 | 0.5 |  |  |  |  |  |

Each binder was assayed against T3, extracellular domain of human FGFR1c … (assay: SPR, mAb captured, 25 C).
Protocol: as §1

| Binder | 180 nM hFGFR1c-V5-6His Bind (RU) | binding result | Kd [nM] | koff [s⁻¹] | kon [M⁻¹ s⁻¹] | t1/2 [s] |
| --- | --- | --- | --- | --- | --- | --- |
| B1 | 5.8 |  |  |  |  |  |
| B2 | -0.9 |  |  |  |  |  |
| B3 | -1.3 |  |  |  |  |  |
| B4 | 1.3 | no binding (tested: 180 nM) |  |  |  |  |
| B5 | -0.8 |  |  |  |  |  |
| B7 | 4.9 |  | 352 | 0.0536 | 152000 | 13.2 |
| B8 | 6.9 |  | 197 | 0.0432 | 219000 | 16.2 |
| B6 | 2.4 | no binding (tested: 180 nM) |  |  |  |  |
